Measured values reported in IntAct's records for PubMed 31515488.

B1: Vesicle transport through interaction with t-SNAREs homolog 1B (Homo sapiens), Q9UEU0 (parent)
chain: MASSAASSEHFEKLHEIFRGLHEDLQGVPERLLGTAGTEEKKKLIRDFDEKQQEANETLAEMEEELRYAPLSFRNPMMSKLRNYRKDLAKLHREVRSTPLTATPGGRGDMKYGIYAVENEHMNRLQSQRAMLLQGTESLNRATQSIERSHRIATETDQIGSEIIEELGEQRDQLERTKSRLVNTSENLSKSRKILRSMSRKVTTNKLLLSIIILLELAILGGLVYYKFFRSH
partner: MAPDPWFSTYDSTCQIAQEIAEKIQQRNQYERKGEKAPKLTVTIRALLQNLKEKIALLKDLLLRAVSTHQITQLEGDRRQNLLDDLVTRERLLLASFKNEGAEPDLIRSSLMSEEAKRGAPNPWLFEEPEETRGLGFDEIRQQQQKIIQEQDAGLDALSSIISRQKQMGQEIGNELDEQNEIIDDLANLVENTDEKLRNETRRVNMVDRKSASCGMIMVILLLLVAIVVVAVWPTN
B2: Pyruvate dehydrogenase protein X component, mitochondrial (Homo sapiens), O00330 (parent)
chain: MAASWRLGCDPRLLRYLVGFPGRRSVGLVKGALGWSVSRGANWRWFHSTQWLRGDPIKILMPSLSPTMEEGNIVKWLKKEGEAVSAGDALCEIETDKAVVTLDASDDGILAKIVVEEGSKNIRLGSLIGLIVEEGEDWKHVEIPKDVGPPPPVSKPSEPRPSPEPQISIPVKKEHIPGTLRFRLSPAARNILEKHSLDASQGTATGPRGIFTKEDALKLVQLKQTGKITESRPTPAPTATPTAPSPLQATAGPSYPRPVIPPVSTPGQPNAVGTFTEIPASNIRRVIAKRLTESKSTVPHAYATADCDLGAVLKVRQDLVKDDIKVSVNDFIIKAAAVTLKQMPDVNVSWDGEGPKQLPFIDISVAVATDKGLLTPIIKDAAAKGIQEIADSVKALSKKARDGKLLPEEYQGGSFSISNLGMFGIDEFTAVINPPQACILAVGRFRPVLKLTEDEEGNAKLQQRQLITVTMSSDSRVVDDELATRFLKSFKANLENPIRLA
B3: Thioredoxin-like protein 4B (Homo sapiens), Q9NX01 (parent)
chain: MSFLLPKLTSKKEVDQAIKSTAEKVLVLRFGRDEDPVCLQLDDILSKTSSDLSKMAAIYLVDVDQTAVYTQYFDISYIPSTVFFFNGQHMKVDYGSPDHTKFVGSFKTKQDFIDLIEVIYRGAMRGKLIVQSPIDPKNIPKYDLLYQDI
B4: Protein FAM13C (Homo sapiens), Q8NE31 (parent)
chain: MFSCFCFSLQDNSFSSTTVTECDEDPVSLHEDQTDCSSLRDENNKENYPDAGALVEEHAPPSWEPQQQNVEATVLVDSVLRPSMGNFKSRKPKSIFKAESGRSHGESQETEHVVSSQSECQVRAGTPAHESPQNNAFKCQETVRLQPRIDQRTAISPKDAFETRQDLNEEEAAQVHGVKDPAPASTQSVLADGTDSADPSPVHKDGQNEADSAPEDLHSVGTSRLLYHITDGDNPLLSPRCSIFSQSQRFNLDPESAPSPPSTQQFMMPRSSSRCSCGDGKEPQTITQLTKHIQSLKRKIRKFEEKFEQEKKYRPSHGDKTSNPEVLKWMNDLAKGRKQLKELKLKLSEEQGSAPKGPPRNLLCEQPTVPRENGKPEAAGPEPSSSGEETPDAALTCLKERREQLPPQEDSKVTKQDKNLIKPLYDRYRIIKQILSTPSLIPTIQEEEDSDEDRPQGSQQPSLADPASHLPVGDHLTYSNETEPVRALLPDEKKEVKPPALSMSNLHEATMPVLLDHLRETRADKKRLRKALREFEEQFFKQTGRSPQKEDRIPMADEYYEYKHIKAKLRLLEVLISKQDVAKTI
partner: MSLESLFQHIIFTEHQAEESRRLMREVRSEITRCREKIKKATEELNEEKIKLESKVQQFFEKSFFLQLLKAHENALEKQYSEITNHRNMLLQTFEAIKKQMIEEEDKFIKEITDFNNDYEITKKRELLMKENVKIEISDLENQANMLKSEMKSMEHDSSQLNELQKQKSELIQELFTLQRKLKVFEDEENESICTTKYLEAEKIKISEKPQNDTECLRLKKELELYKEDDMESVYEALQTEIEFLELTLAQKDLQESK
B5: Tuftelin-interacting protein 11 (Homo sapiens), Q9UBB9 (parent)
chain: MSLSHLYRDGEGRIDDDDDERENFEITDWDLQNEFNPNRQRHWQTKEEATYGVWAERDSDDERPSFGGKRARDYSAPVNFISAGLKKGAAEEAELEDSDDEEKPVKQDDFPKDFGPRKLKTGGNFKPSQKGFAGGTKSFMDFGSWERHTKGIGQKLLQKMGYVPGRGLGKNAQGIINPIEAKQRKGKGAVGAYGSERTTQSMQDFPVVDSEEEAEEEFQKELSQWRKDPSGSKKKPKYSYKTVEELKAKGRISKKLTAPQKELSQVKVIDMTGREQKVYYSYSQISHKHNVPDDGLPLQSQQLPQSGKEAKAPGFALPELEHNLQLLIDLTEQEIIQNDRQLQYERDMVVNLFHELEKMTEVLDHEERVISNLSKVLEMVEECERRMQPDCSNPLTLDECARIFETLQDKYYEEYRMSDRVDLAVAIVYPLMKEYFKEWDPLKDCTYGTEIISKWKSLLENDQLLSHGGQDLSADAFHRLIWEVWMPFVRNIVTQWQPRNCDPMVDFLDSWVHIIPVWILDNILDQLIFPKLQKEVENWNPLTDTVPIHSWIHPWLPLMQARLEPLYSPIRSKLSSALQKWHPSDSSAKLILQPWKDVFTPGSWEAFMVKNIVPKLGMCLGELVINPHQQHMDAFYWVIDWEGMISVSSLVGLLEKHFFPKWLQVLCSWLSNSPNYEEITKWYLGWKSMFSDQVLAHPSVKDKFNEALDIMNRAVSSNVGAYMQPGARENIAYLTHTERRKDFQYEAMQERREAENMAQRGIGVAASSVPMNFKDLIETKAEEHNIVFMPVIGKRHEGKQLYTFGRIVIYIDRGVVFVQGEKTWVPTSLQSLIDMAK
partner: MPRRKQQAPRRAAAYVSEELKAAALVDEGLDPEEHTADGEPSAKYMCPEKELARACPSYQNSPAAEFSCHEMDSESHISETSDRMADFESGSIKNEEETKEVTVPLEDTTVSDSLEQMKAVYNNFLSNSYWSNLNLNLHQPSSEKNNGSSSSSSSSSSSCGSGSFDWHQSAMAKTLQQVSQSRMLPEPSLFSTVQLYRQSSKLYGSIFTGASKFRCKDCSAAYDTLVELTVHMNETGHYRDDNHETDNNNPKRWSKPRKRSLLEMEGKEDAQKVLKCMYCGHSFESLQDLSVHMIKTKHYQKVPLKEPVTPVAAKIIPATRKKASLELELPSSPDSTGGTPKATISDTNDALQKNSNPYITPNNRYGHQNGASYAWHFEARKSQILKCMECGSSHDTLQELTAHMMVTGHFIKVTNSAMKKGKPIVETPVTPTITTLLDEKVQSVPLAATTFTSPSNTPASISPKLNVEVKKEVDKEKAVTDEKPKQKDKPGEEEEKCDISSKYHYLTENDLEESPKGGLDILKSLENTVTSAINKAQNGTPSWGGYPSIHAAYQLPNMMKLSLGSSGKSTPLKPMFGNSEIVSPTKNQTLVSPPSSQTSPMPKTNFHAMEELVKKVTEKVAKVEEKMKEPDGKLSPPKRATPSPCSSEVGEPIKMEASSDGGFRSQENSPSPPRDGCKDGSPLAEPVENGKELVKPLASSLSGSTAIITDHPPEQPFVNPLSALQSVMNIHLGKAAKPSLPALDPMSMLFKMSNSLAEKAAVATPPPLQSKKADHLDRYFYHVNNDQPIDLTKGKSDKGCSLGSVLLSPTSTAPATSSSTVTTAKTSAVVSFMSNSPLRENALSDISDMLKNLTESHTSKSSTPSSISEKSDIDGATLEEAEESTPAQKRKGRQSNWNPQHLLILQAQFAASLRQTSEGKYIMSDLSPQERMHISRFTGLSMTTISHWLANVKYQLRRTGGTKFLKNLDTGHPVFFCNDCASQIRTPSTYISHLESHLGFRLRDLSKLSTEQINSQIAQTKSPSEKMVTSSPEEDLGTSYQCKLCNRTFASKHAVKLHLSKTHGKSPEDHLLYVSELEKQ
B6: Zinc finger protein Aiolos (Homo sapiens), Q9UKT9 (parent)
chain: MEDIQTNAELKSTQEQSVPAESAAVLNDYSLTKSHEMENVDSGEGPANEDEDIGDDSMKVKDEYSERDENVLKSEPMGNAEEPEIPYSYSREYNEYENIKLERHVVSFDSSRPTSGKMNCDVCGLSCISFNVLMVHKRSHTGERPFQCNQCGASFTQKGNLLRHIKLHTGEKPFKCHLCNYACQRRDALTGHLRTHSVEKPYKCEFCGRSYKQRSSLEEHKERCRTFLQSTDPGDTASAEARHIKAEMGSERALVLDRLASNVAKRKSSMPQKFIGEKRHCFDVNYNSSYMYEKESELIQTRMMDQAINNAISYLGAEALRPLVQTPPAPTSEMVPVISSMYPIALTRAEMSNGAPQELEKKSIHLPEKSVPSERGLSPNNSGHDSTDTDSNHEERQNHIYQQNHMVLSRARNGMPLLKEVPRSYELLKPPPICPRDSVKVINKEGEVMDVYRCDHCRVLFLDYVMFTIHMGCHGFRDPFECNMCGYRSHDRYEFSSHIARGEHRALLK
partner: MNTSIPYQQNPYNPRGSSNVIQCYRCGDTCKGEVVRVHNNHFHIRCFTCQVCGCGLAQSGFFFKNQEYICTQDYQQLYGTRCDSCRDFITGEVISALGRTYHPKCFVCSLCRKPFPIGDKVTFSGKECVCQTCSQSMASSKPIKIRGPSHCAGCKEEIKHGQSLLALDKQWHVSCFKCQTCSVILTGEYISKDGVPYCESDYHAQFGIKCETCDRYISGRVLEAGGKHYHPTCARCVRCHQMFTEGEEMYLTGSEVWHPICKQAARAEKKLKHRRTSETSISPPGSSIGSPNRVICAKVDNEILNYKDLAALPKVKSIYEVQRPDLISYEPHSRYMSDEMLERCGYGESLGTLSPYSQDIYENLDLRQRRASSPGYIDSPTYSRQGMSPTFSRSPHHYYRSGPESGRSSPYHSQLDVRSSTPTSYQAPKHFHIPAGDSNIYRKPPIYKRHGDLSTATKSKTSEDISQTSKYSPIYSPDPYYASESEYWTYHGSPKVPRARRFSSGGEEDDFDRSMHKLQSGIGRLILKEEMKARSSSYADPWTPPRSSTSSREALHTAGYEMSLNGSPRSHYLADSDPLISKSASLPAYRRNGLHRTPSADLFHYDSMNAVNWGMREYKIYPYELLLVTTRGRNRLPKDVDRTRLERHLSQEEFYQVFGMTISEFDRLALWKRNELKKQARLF

Variants of: B1
Conditions: with stx8_human STX8, Q9UNK0

Variant	effect of a mutation on the interaction
MASSAASSEHFEKLHEIFRGLHEDLQGVPERLLGTAGTEEKKKLIRDFDEKQQEANETLAEMEEELRYAPLSFRNPMMSKLRNYRKDLAKLHREVRSTPLTATPGGRGDMKYGIYAVENEHMNRLQSQRAMLLQGTESLNRATQSIERSHRIATETDQIGSEIIEELGEQRDQLEHTKSRLVNTSENLSKSRKILRSMSRKVTTNKLLLSIIILLELAILGGLVYYKFFRSH [R176H]	with no effect

Variants of: B2
Conditions: with atrap_human AGTRAP

Variant	effect of a mutation on the interaction
MAASWRLGCDPRLLRYLVGFPGRRSVGLVKGALGWSVSRGANWRWFHSTQWLRGDPIKILMPSLSPTMEEGNIVKWLKKEGEAVSAGDALCEIETDKAVVTLDASDDGILAKIVVEEGSKNIRLGSLIGLIVEEGEDWKHVEIPKDVGPPPPVSKPSEPRPSPEPQISIPVKKEHIPGTLRFRLSPAARNILEKHSLDASQGTATGPRGIFTKEDALKLVQLKQTGKITESRPTPAPTATPTAPSPLQATAGPSYPRPVIPPVSTPGQPSAVGTFTEIPASNIRRVIAKRLTESKSTVPHAYATADCDLGAVLKVRQDLVKDDIKVSVNDFIIKAAAVTLKQMPDVNVSWDGEGPKQLPFIDISVAVATDKGLLTPIIKDAAAKGIQEIADSVKALSKKARDGKLLPEEYQGGSFSISNLGMFGIDEFTAVINPPQACILAVGRFRPVLKLTEDEEGNAKLQQRQLITVTMSSDSRVVDDELATRFLKSFKANLENPIRLA [N270S]	with no effect

Variants of: B3
Conditions: with itf2_human TCF4, P15884
Sequence of itf2_human TCF4, P15884 (P15884 whole entry): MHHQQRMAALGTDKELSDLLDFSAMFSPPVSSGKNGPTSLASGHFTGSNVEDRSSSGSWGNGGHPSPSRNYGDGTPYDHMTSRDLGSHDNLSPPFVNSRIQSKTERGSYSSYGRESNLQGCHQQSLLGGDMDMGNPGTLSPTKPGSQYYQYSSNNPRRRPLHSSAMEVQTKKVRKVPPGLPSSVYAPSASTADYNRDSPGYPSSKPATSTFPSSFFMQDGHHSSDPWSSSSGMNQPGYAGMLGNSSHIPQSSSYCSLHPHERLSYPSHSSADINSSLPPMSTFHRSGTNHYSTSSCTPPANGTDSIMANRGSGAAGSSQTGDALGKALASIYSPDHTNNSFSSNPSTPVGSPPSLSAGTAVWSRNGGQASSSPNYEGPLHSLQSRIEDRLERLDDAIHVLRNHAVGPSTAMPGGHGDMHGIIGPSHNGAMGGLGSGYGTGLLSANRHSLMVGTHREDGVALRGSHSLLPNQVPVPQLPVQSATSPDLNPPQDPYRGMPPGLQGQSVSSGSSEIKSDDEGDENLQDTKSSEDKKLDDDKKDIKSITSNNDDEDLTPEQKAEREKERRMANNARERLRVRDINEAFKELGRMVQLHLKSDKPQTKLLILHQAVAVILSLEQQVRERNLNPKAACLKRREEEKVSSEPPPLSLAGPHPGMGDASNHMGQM

Variant	effect of a mutation on the interaction
MSFLLPKLTSKKEVDQAIKSTAEKVLVLRFGRDEDPVCLQLDDILSKTSSDLSKMAAIYLVDVDQTAVYTQYFDISYIPSTVFFFNGQHMKVDYGSPDHTKFVGSFKTKQDFIDLIEVMYRGAMRGKLIVQSPIDPKNIPKYDLLYQDI [I119M]	with no effect

Variants of: B4
Conditions: with cc172_human CCDC172, P0C7W6

Variant	effect of a mutation on the interaction
P147S	with no effect

Variants of: B5
Conditions: with tsh3_human TSHZ3, Q63HK5

Variant	effect of a mutation on the interaction
S688L	with no effect
R8Q	with no effect

Variants of: B6
Conditions: with ablm3_human ABLIM3, O94929

Variant	effect of a mutation on the interaction
N119D	with no effect
A24V	with no effect
